# Results reported in patent US20230220115A1 (BIOMOLECULAR, published 2023).
# T1: CD19 (UniProt P15391 20-291)
# T1 sequence (looked up): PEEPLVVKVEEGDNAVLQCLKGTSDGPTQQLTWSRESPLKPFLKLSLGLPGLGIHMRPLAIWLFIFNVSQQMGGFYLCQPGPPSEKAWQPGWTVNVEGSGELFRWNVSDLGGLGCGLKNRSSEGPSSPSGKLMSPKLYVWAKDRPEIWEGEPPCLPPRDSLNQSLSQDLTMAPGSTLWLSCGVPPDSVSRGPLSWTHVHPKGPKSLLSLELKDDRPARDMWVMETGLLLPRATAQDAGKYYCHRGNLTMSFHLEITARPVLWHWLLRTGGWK
# B1: B19c66 (one-arm antibody) (antibody, human IgG1, kappa)
# light: not shown
# heavy: not shown
# chain: CPPCPAPELLGGPSVFLFPPKPKDTLMISRTPEVTCVVVDVSHEDPEVKFNWYVDGVEVHNAKTKPREEQYNSTYRVVSVLTVLHQDWLNGKEYKCKVSNKALPAPIEKTISKAKGQPREPQVYVYPPSRDELTKNQVSLTCLVKGFYPSDIAVEWESNGQPENNYKTTPPVLDSDGSFALVSKLTVDKSRWQQGNVFSCSVMHEALHNHYTQKSLSLSPGK
# Assays:
# [1] = biological target: recombinant human Fc gamma receptor CD16a 158V (FcRγIIIa) (human, UniProt P08637 17-208)
# recombinant human Fc gamma receptor CD16a 158V (FcRγIIIa), sequence (P08637 17-208 F176V limits assumed): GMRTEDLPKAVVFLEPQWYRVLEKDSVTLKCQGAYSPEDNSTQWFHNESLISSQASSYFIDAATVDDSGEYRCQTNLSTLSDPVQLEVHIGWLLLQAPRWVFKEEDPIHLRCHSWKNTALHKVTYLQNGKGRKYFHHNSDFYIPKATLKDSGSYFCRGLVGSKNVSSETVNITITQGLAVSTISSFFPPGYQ
# CD19 = biological target: T1, CD19
binder,measurement,setting,value
B1,Kd,[1],234 nM
same,Kd,CD19,21.8 nM
